Laboratory results from patent US20150284465A1 (Chugai, published 2015).

How the values were obtained:
[1] = molecular target: T1, SR344 (N-terminal 1st to 344th amino acids of soluble human IL-6R) (human, UniProt P08887 20-344, limits assumed); test: cell-based or functional assay
T1 sequence (looked up): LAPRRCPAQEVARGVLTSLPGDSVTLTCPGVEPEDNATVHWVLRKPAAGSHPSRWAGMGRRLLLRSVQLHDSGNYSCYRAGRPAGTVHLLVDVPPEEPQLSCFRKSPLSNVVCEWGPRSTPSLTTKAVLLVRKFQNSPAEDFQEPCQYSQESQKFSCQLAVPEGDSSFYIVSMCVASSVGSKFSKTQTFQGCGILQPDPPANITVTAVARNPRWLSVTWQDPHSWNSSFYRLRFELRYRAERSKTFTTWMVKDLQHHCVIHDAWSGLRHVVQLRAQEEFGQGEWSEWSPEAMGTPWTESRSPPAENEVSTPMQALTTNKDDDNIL

[2] = molecular target: T1, SR344 (N-terminal 1st to 344th amino …); test: SPR (Biacore T100), Protein A/G capture, SR344 at 0, 0.36 and 1.4 µg/ml, 15 min dissociation, 37 C
[3] = molecular target: T1, SR344 (N-terminal 1st to 344th amino …); test: SPR (Biacore T100), Protein A/G capture, SR344 as analyte, 37 C

- BaF3/gp130 neutralizing activity, 100% inhibitory concentration against WT [1]: ≥ 100 fold
- Kd [2]: 0.052 nM
- koff [2]: 4e-05 s⁻¹
- kon [2]: 770000 M⁻¹ s⁻¹
- ka relative to PF1-IgG1 [3]: ~0.5 fold
B1: F2H/L39-IgG1 (antibody, V domains shown)
VH: QVQLQESGPGLVKPSETLSLTCAVSGYSISDDHAWSWVRQPPGEGLEWIGYISYSGITNYNPSLQDRVTISRDNSKNTLYLQMNSLRAEDTAVYYCARLLARATAMDYWGQGILVTVSS
VL: DIQMTQSPSSLSASVGDSVTITCQASEDISSYLNWYQQKPGKAPELLIYYGSELESGVPSRFSGSGSGTDFTFTISSLEAEDAATYYCGQGNRLPYTFGQGTKVEIER
